Results reported in patent publication US20090098106.
Positions count from the first letter of the chain named.

Experiments:
[1] = target: T1, HC8 (α7) subunit of the human 20S proteasome, P25788
T1 chain: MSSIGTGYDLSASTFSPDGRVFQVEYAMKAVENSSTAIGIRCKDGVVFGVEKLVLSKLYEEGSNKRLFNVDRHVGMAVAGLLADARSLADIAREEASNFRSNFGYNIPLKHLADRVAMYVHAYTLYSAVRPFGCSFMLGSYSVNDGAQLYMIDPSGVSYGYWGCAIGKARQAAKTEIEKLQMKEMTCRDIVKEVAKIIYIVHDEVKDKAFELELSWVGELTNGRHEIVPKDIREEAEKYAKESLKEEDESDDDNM

[2] = target: T2, HC8 SS 243,250AA mutant, P25788
T2 chain: T1 chain with S243A, S250A

B1: NF-κB inducing kinase (NIK), human, full length (protein)
chain: MAVMEMACPGAPGSAVGQQKELPKPKEKTPPLGKKQSSVYKLEAVEKSPVFCGKWEILNDVITKGTAKEGSEAGPAAISIIAQAECENSQEFSPTFSERIFIAGSKQYSQSESLDQIPNNVAHATEGKMARVCWKGKRRSKARKKRKKKSSKSLAHAGVALAKPLPRTPEQESCTIPVQEDESPLGAPYVRNTPQFTKPLKEPGLGQLCFKQLGEGLRPALPRSELHKLISPLQCLNHVWKLHHPQDGGPLPLPTHPFPYSRLPHPFPFHPLQPWKPHPLESFLGKLACVDSQKPLPDPHLSKLACVDSPKPLPGPHLEPSCLSRGAHEKFSVEEYLVHALQGSVSSSQAHSLTSLAKTWAARGSRSREPSPKTEDNEGVLLTEKLKPVDYEYREEVHWATHQLRLGRGSFGEVHRMEDKQTGFQCAVKKVRLEVFRAEELMACAGLTSPRIVPLYGAVREGPWVNIFMELLEGGSLGQLVKEQGCLPEDRALYYLGQALEGLEYLHSRRILHGDVKADNVLLSSDGSHAALCDFGHAVCLQPDGLGKSLLTGDYIPGTETHMAPEVVLGRSCDAKVDVWSSCCMMLHMLNGCHPWTQFFRGPLCLKIASEPPPVREIPPSCAPLTAQAIQEGLRKEPIHRVSAAELGGKVNRALQQVGGLKSPWRGEYKEPRHPPPNQANYHQTLHAQPRELSPRAPGPRPAEETTGRAPKLQPPLPPEPPEPNKSPPLTLSKEESGMWEPLPLSSLEPAPARNPSSPERKATVPEQELQQLEIELFLNSLSQPFSLEEQEQILSCLSIDSLSLSDDSEKNPSKASQSSRDTLSSGVHSWSSQAEARSSSWNMVLARGRPTDTPSYFNGVKVQIQSLNGEHLHIREFHRVKVGDIATGISSQIPAAAFSLVTKDGQPVRYDMEVPDSGIDLQCTLAPDGSFAWSWRVKHGQLENRP
Which results are given for B1?
in vitro kinase assay (phosphorylation of HC8 in the immunoprecipitate) [1]: HC8 was found to be a substrate for NIK phosphorylation in an in vitro kinase assay; in vitro kinase assay (phosphorylation of HC8 in the immunoprecipitate) [2]: Replacement of two serine residues on HC8 (amino acids 243 and 250) by alanine completely abolished the NIK-induced phosphorylation of HC8
